Data set [1] concerns the molecule itself. In words: SEC-SAXS. (SEC sorts molecules by how far they enter the pores of the column.)
Data set [2] deals with the molecule itself. In words: SEC-SAXS. This is another data set of the same source.

Read-outs that look alike come from different tables or passages of the source.

Experimental findings from article PMC8740826 (Protein Science : A Publication of the Protein Society, 2021) are described below.

B1: glucose isomerase from Streptomyces rubiginosus (enzyme)
chain: not shown
Regarding B1, in “SEC-SAXS [1]”, the stoichiometry N (as a rule, a count of units in the complex or per binding partner) was determined as 4.

B2: β-amylase from sweet potato (enzyme)
chain: APIPGVMPIGNYVSLYVMLPLGVVNADNVFPDKEKVEDELKQVKAGGCDGVMVDVWWGIIEAKGPKQYDWSAYRELFQLVKKCGLKIQAIMSFHQCGGNVGDAVFIPIPQWILQIGDKNPDIFYTNRAGNRNQEYLSLGVDNQRLFQGRTALEMYRDFMESFRDNMADFLKAGDIVDIEVGCGAAGELRYPSYPETQGWVFPGIGEFQCYDKYMVADWKEAVKQAGNADWEMPGKGAGTYNDTPDKTEFFRPNGTYKTDMGKFFLTWYSNKLIIHGDQVLEEANKVFVGLRVNIAAKVSGIHWWYNHVSHAAELTAGFYNVAGRDGYRPIARMLARHHATLNFTCLEMRDSEQPAEAKSAPQELVQQVLSSGWKEYIDVAGENALPRYDATAYNQMLLNVRPNGVNLNGPPKLKMSGLTYLRLSDDLLQTDNFELFKKFVKKMHADLDPSPNAISPAVLERSNSAITIDELMEATKGSRPFPWYDVTDMPVDGSNPFD
Turning to B2, the “stoichiometry N” value in “SEC-SAXS [2]” was determined as 4.
